# In the supplement of paper PMC10567573:
# B1: CFHR2 (parent)
# chain: FVENGHSESSGQTHLEGDTVQIIC
# Variants of: B1
# Assay: protein stability index of a GFP-peptide fusion (GPS, HEK-293T) (PSI 1-6); higher = more stable
# Details: c terminus: a fixed tail appended
# 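Further: lentivirally expressed fusions sorted by FACS into six bins by GFP to DsRed ratio, PSI derived from sequencing read proportions per bin multiplied by bin number.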
row,Variant,protein stability index
1,FVENGHSEMSGQTHLEGDTVQIIC,2.32
2,FVENGHSETSGQTHLEGDTVQIIC,2.78
3,FVENGHSEPSGQTHLEGDTVQIIC,2.75
4,FVENGHSESSGQTFLEGDTVQIIC,1.89
5,FVENGHSESSGQTVLEGDTVQIIC,2.95
6,FVENGHSESSGQTLLEGDTVQIIC,2.37
7,FVENGHSESSGQTWLEGDTVQIIC,1.75
8,FVENGHSESSGQTALEGDTVQIIC,3.11
9,FVENGHSESSGQTKLEGDTVQIIC,2.35
10,FVENGHSESSGQTPLEGDTVQIIC,2.83
11,FVENGHSESSGQTSLEGDTVQIIC,3.02
12,FVENGHSESSGQTRLEGDTVQIIC,2.89
13,FVENGHSESSGQTDLEGDTVQIIC,3.29
14,FVENGHSESSGQTGLEGDTVQIIC,2.47
15,FVENGHSESSGQTMLEGDTVQIIC,2.35
16,FVENGHSESSGQTELEGDTVQIIC,4.18
17,FVENGHSESSGQTCLEGDTVQIIC,1.96
18,FVENGHSESSGQTTLEGDTVQIIC,3.08
19,FVENGHSESSGQTYLEGDTVQIIC,2.52
20,FVENGHSESSGQTNLEGDTVQIIC,3.43
21,FVENGHSESSGQTILEGDTVQIIC,3.28
22,FVENGHSESSGQTQLEGDTVQIIC,3.46
23,FVENGHSESSGQTHLIGDTVQIIC,2.25
24,FVENGHSESSGQTHLCGDTVQIIC,1.82

row,Variant,protein stability index
1,FVENGHSESSGQTHLMGDTVQIIC,2.14
2,FVENGHSESSGQTHLDGDTVQIIC,3.12
3,FVENGHSESSGQTHLAGDTVQIIC,2.13
4,FVENGHSESSGQTHLRGDTVQIIC,2.63
5,FVENGHSESSGQTHLKGDTVQIIC,2.19
6,FVENGHSESSGQTHLQGDTVQIIC,2.33
7,FVENGHSESSGQTHLTGDTVQIIC,2.62
8,FVENGHSESSGQTHLSGDTVQIIC,2.71
9,FVENGHSESSGQTHLLGDTVQIIC,2.59
10,FVENGHSESSGQTHLHGDTVQIIC,1.86
11,FVENGHSESSGQTHLPGDTVQIIC,2.42
12,FVENGHSESSGQTHLVGDTVQIIC,1.76
13,FVENGHSESSGQTHLNGDTVQIIC,2.15
14,FVENGHSESSGQTHLGGDTVQIIC,2.01
15,FVENGHSISSGQTHLEGDTVQIIC,1.57
16,FVENGHSKSSGQTHLEGDTVQIIC,1.97
17,FVENGHSGSSGQTHLEGDTVQIIC,2.22
18,FVENGHSVSSGQTHLEGDTVQIIC,2.45
19,FVENGHSWSSGQTHLEGDTVQIIC,3.2
20,FVENGHSFSSGQTHLEGDTVQIIC,1.64
21,FVENGHSPSSGQTHLEGDTVQIIC,2.51
22,FVENGHSNSSGQTHLEGDTVQIIC,2.18
23,FVENGHSQSSGQTHLEGDTVQIIC,2.15
24,FVENGHSRSSGQTHLEGDTVQIIC,2.28

row,Variant,protein stability index
1,FVENGHSTSSGQTHLEGDTVQIIC,2.16
2,FVENGHSSSSGQTHLEGDTVQIIC,2.32
3,FVENGHSMSSGQTHLEGDTVQIIC,1.57
4,FVENGHSHSSGQTHLEGDTVQIIC,2.08
5,FVENGHSLSSGQTHLEGDTVQIIC,1.81
6,FVENGHSCSSGQTHLEGDTVQIIC,1.82
7,FVENGHSASSGQTHLEGDTVQIIC,2.15
8,FVENGHSDSSGQTHLEGDTVQIIC,2.75
9,FVENGHSYSSGQTHLEGDTVQIIC,2.29
10,FVENGHSESSGITHLEGDTVQIIC,2.06
11,FVENGHSESSGRTHLEGDTVQIIC,1.92
12,FVENGHSESSGWTHLEGDTVQIIC,2.35
13,FVENGHSESSGETHLEGDTVQIIC,3.67
14,FVENGHSESSGPTHLEGDTVQIIC,3.19
15,FVENGHSESSGCTHLEGDTVQIIC,1.86
16,FVENGHSESSGNTHLEGDTVQIIC,3.39
17,FVENGHSESSGMTHLEGDTVQIIC,1.76
18,FVENGHSESSGVTHLEGDTVQIIC,2.08
19,FVENGHSESSGHTHLEGDTVQIIC,2.4
20,FVENGHSESSGTTHLEGDTVQIIC,2.62
21,FVENGHSESSGKTHLEGDTVQIIC,2.05
22,FVENGHSESSGYTHLEGDTVQIIC,1.62
23,FVENGHSESSGSTHLEGDTVQIIC,2.49
24,FVENGHSESSGFTHLEGDTVQIIC,2.23

row,Variant,protein stability index
1,FVENGHSESSGLTHLEGDTVQIIC,1.69
2,FVENGHSESSGATHLEGDTVQIIC,2.43
3,FVENGHSESSGGTHLEGDTVQIIC,3.2
4,FVENGHSESSGDTHLEGDTVQIIC,3.46
5,FVENGHSESEGQTHLEGDTVQIIC,3.33
6,FVENGHSESLGQTHLEGDTVQIIC,2.31
7,FVENGHSESHGQTHLEGDTVQIIC,2.34
8,FVENGHSESIGQTHLEGDTVQIIC,1.56
9,FVENGHSESNGQTHLEGDTVQIIC,2.99
10,FVENGHSESFGQTHLEGDTVQIIC,1.97
11,FVENGHSESDGQTHLEGDTVQIIC,3.51
12,FVENGHSESMGQTHLEGDTVQIIC,2.08
13,FVENGHSESYGQTHLEGDTVQIIC,1.94
14,FVENGHSESQGQTHLEGDTVQIIC,2.77
15,FVENGHSESRGQTHLEGDTVQIIC,2.59
16,FVENGHSESAGQTHLEGDTVQIIC,2.65
17,FVENGHSESGGQTHLEGDTVQIIC,2.87
18,FVENGHSESKGQTHLEGDTVQIIC,2.65
19,FVENGHSESPGQTHLEGDTVQIIC,3.49
20,FVENGHSESCGQTHLEGDTVQIIC,2
21,FVENGHSESVGQTHLEGDTVQIIC,1.75
22,FVENGHSESTGQTHLEGDTVQIIC,2.73
